Measurements from the RNAGym collection of RNA variant scans (doi:10.1021/acssynbio.7b00057).

B1: Pistol ribozyme (parent)
chain: GGGUCGUUGUUCCAUAAUCGCGUGGAUAUGGCACGCAAGUUUCUACCGGGCACCGUAAAUGUCCGACUGGAGCCGUUCGGGCGGCUAUAAACAGACCUCAGGCCCGAAGCGUGGCGGCACCUGCCGCCGGUGGUAAAAAAGAUCGGAAGAGCACACGUCU

Variants of: B1
Test: aptazyme ON/OFF ratio, guanine; higher = stronger switching; co-transcriptional cleavage with and without guanine

| Variant | aptazyme ON/OFF ratio |
| --- | --- |
| U7C G9C C12A C13G | 1.07 |
| U7C G9C C12A C13A | 1.05 |
| U7C G9C C12A C13U | 1.02 |
| U7C G9A U10G U11G C12G C13A | 1.07 |
| U7C G9A U10G U11G C12G C13G | 1.05 |
| U7C G9A U10G U11G C12G C13U | 1.07 |
| U7C G9A U10C U11G C12U C13G | 1.34 |
| U7C G9A U10C U11G C12U C13A | 1.31 |
| U7C G9A U10C U11G C12U C13U | 1.32 |
| U7C G9A U10G U11C C12G | 1.32 |
| U7C G9A U10G U11C C12A | 1.28 |
| U7C G9A U10G U11C C12U | 1.18 |
| U7A U11C C13U | 1.21 |
| U7A U11C C13G | 1.07 |
| U7A U11C C13A | 1.19 |
| U7C G9A U10C U11C C12U C13A | 1.04 |
| U7C G9A U10C U11C C12U C13U | 1.07 |
| U7C G9A U10C U11C C12U C13G | 1.04 |
| U7C G9A U10A U11G C12G C13A | 1.12 |
| U7C G9A U10A U11G C12G C13G | 1.08 |
| U7C G9A U10A U11G C12G C13U | 1.11 |
| U7C G9A U10A U11G C12A C13U | 1.15 |
| U7C G9A U10A U11G C12A C13A | 1.08 |
| U7C G9A U10A U11G C12A C13G | 1.11 |

| Variant | aptazyme ON/OFF ratio |
| --- | --- |
| U7A U11G C13G | 1.05 |
| U7A U11G C13U | 1.04 |
| U7A U11G C13A | 1.03 |
| U7C G9C U10A U11A C12A C13G | 1.08 |
| U7C G9C U10A U11A C12A C13A | 1.09 |
| U7C G9A U10C U11A C12G C13U | 1.18 |
| U7C G9A U10C U11A C12G C13G | 1.39 |
| U7C G9A U10C U11A C12G C13A | 1.11 |
| U7C G9A U10A C13U | 1.34 |
| U7C G9A U10A C13G | 1.03 |
| U7C G9A U10A C13A | 1.23 |
| U7C G9A U10A U11C C13G | 1.04 |
| U7C G9A U10A U11C C13U | 1.07 |
| U7C G9A U10A U11C C13A | 1.03 |
| U7C C12G | 1.85 |
| U7C C12A | 1.61 |
| U7C C12U | 1.73 |
| U7C G9A U10C U11G C12A C13A | 1.21 |
| U7C G9A U10C U11G C12A C13U | 1.08 |
| U7C G9A U10C U11G C12A C13G | 1.15 |
| U7C G9A U10G U11G C12U | 1.28 |
| U7C G9A U10G U11G C12A | 1.16 |
| U7C G9A U10G U11G C12G | 1.23 |
| U7C G9A U10C U11G C13A | 1.19 |

| Variant | aptazyme ON/OFF ratio |
| --- | --- |
| U7C G9A U10C U11G C13U | 1.45 |
| U7C G9A U10C U11G C13G | 1.22 |
| U7C G9A U10A C12A | 1.15 |
| U7C G9A U10A C12U | 1.35 |
| U7C G9A U10A C12G | 1.18 |
| U7C G9A U10G U11C C12A C13G | 1.11 |
| U7C G9A U10G U11C C12A C13U | 1.15 |
| U7C G9A U10G U11C C12A C13A | 1.2 |
| U7C G9A U10A U11C | 1.09 |
| U7C G9A U10A U11A | 1.19 |
| U7C G9A U10A U11G | 1.27 |
| U7C G9A U10C U11A C12U C13A | 1.21 |
| U7C G9A U10C U11A C12U C13G | 1.22 |
| U7C G9A U10C U11A C12U C13U | 1.39 |
| U7C G9A U10C U11C C13A | 1.01 |
| U7C G9A U10C U11C C13U | 1.03 |
| U7C G9A U10C U11C C13G | 1.02 |
| U7C C12U C13A | 1.55 |
| U7C C12U C13U | 1.05 |
| U7C C12U C13G | 1.28 |
| U7C G9A U10C U11G C12G | 1.28 |
| U7C G9A U10C U11G C12A | 1.28 |
| U7C G9A U10C U11G C12U | 1.45 |
| U7C G9A U10A U11A C13A | 1.08 |

| Variant | aptazyme ON/OFF ratio |
| --- | --- |
| U7C G9A U10A U11A C13U | 1.16 |
| U7C G9A U10A U11A C13G | 1.04 |
| U7C G9C U10A | 1.06 |
| U7C G9C U10A C12G C13A | 1.07 |
| U7C G9C U10A C12G C13G | 1.11 |
| U7C G9C U10A C12G C13U | 1.12 |
| U7C G9A U11C C12G C13U | 1.18 |
| U7C G9A U11C C12G C13G | 1.17 |
| U7C G9A U11C C12G C13A | 1.29 |
| U7C G9A U11G | 1.37 |
| U7C G9A U11C | 1.05 |
| U7C G9A U11A | 1.33 |
| U7A U11G C12U C13G | 1.06 |
| U7A U11G C12U C13U | 1.13 |
| U7A U11G C12U C13A | 1.15 |
| U7C G9A U11G C12G C13A | 1.19 |
| U7C G9A U11G C12G C13G | 1.21 |
| U7C G9A U11G C12G C13U | 1.09 |
| U7C G9A U10C | 4.55 |
| U7C G9A U10A | 1.88 |
| U7C G9A U10G | 1.42 |
| U7C G9A C12U C13G | 1.18 |
| U7C G9A C12U C13U | 1.22 |
| U7C G9A C12U C13A | 1.22 |

| Variant | aptazyme ON/OFF ratio |
| --- | --- |
| U7C G9A U11C C12A C13U | 1.15 |
| U7C G9A U11C C12A C13A | 1.16 |
| U7C G9A U11C C12A C13G | 1.12 |
| U7C G9A U10A U11C C12A | 1.13 |
| U7C G9A U10A U11C C12U | 1.07 |
| U7C G9A U10A U11C C12G | 1.35 |
| U7C G9A U11A C12U C13A | 1.07 |
| U7C G9A U11A C12U C13G | 1.09 |
| U7C G9A U11A C12U C13U | 1.3 |
| U7A U11G C12G C13A | 1.13 |
| U7A U11G C12G C13U | 1.23 |
| U7A U11G C12G C13G | 1.42 |
| U7C G9A U11G C13G | 1.07 |
| U7C G9A U11G C13U | 1.11 |
| U7C G9A U11G C13A | 1.46 |
| U7C G9A C12A C13U | 1.25 |
| U7C G9A C12A C13G | 1.11 |
| U7C G9A C12A C13A | 1.24 |
| U7C G9A U10G C12A | 1.15 |
| U7C G9A U10G C12G | 1.28 |
| U7C G9A U10G C12U | 1.33 |
| U7A U11G C12A C13G | 1.25 |
| U7A U11G C12A C13A | 1.15 |
| U7A U11G C12A C13U | 1.25 |

| Variant | aptazyme ON/OFF ratio |
| --- | --- |
| U7C G9A U11G C12U C13G | 1.23 |
| U7C G9A U11G C12U C13U | 1.45 |
| U7C G9A U11G C12U C13A | 1.35 |
| U7C G9A U10G U11C C13G | 1.03 |
| U7C G9A U10G U11C C13A | 1.24 |
| U7C G9A U10G U11C C13U | 1.06 |
| U7C G9A U11A C12G | 1.28 |
| U7C G9A U11A C12A | 1.38 |
| U7C G9A U11A C12U | 1.19 |
| U7C G9A U10G C12U C13G | 1.17 |
| U7C G9A U10G C12U C13U | 1.11 |
| U7C G9A U10G C12U C13A | 1.2 |
| U7C G9A U10C U11G C12G C13G | 1.11 |
| U7C G9A U10C U11G C12G C13A | 1.14 |
| U7C G9A U10C U11G C12G C13U | 1.09 |
| U7A U11C C12G C13U | 1.23 |
| U7A U11C C12G C13G | 1.16 |
| U7A U11C C12G C13A | 1.3 |
| U7C G9A U11C C12G | 1.22 |
| U7C G9A U11C C12A | 1.2 |
| U7C G9A U11C C12U | 1.17 |
| U7C G9A U10G C13U | 1.34 |
| U7C G9A U10G C13A | 1.19 |
| U7C G9A U10G C13G | 1.02 |

| Variant | aptazyme ON/OFF ratio |
| --- | --- |
| U7C G9A U10C U11G | 1.42 |
| U7C G9A U10C U11A | 2.6 |
| U7C G9A U10C U11C | 1.12 |
| U7C | 1.31 |
| U7C G9A U10C C12U C13U | 1.14 |
| U7C G9A U10C C12U C13G | 1.16 |
| U7C G9A U10C C12U C13A | 1.2 |
| U7C G9A U10A U11C C12A C13G | 1.1 |
| U7C G9A U10A U11C C12A C13U | 1.24 |
| U7C G9A U10A U11C C12A C13A | 1.1 |
| U7C G9A U10G U11A C12U C13A | 1.05 |
| U7C G9A U10G U11A C12U C13U | 1.18 |
| U7C G9A U10G U11A C12U C13G | 1.14 |
| U7C G9C C12G C13G | 1.05 |
| U7C G9C C12G C13U | 1.05 |
| U7C G9C C12G C13A | 1.04 |
| U7C G9A U10C C12G | 1.2 |
| U7C G9A U10C C12A | 1.27 |
| U7C G9A U10C C12U | 1.2 |
| U7C G9A U10C C13A | 1.07 |
| U7C G9A U10C C13G | 1.06 |
| U7C G9A U10C C13U | 1.96 |
| U7C G9A U10C U11A C12G | 1.14 |
